Experimental data from IntAct's records for PubMed 23572552.

B1: TBC1 domain family member 22B (Homo sapiens), Q9NU19 (parent)
chain: MAAENSKQFWKRSAKLPGSIQPVYGAQHPPLDPRLTKNFIKERSKVNTVPLKNKKASSFHEFARNTSDAWDIGDDEEEDFSSPSFQTLNSKVALATAAQVLENHSKLRVKPERSQSTTSDVPANYKVIKSSSDAQLSRNSSDTCLRNPLHKQQSLPLRPIIPLVARISDQNASGAPPMTVREKTRLEKFRQLLSSQNTDLDELRKCSWPGVPREVRPITWRLLSGYLPANTERRKLTLQRKREEYFGFIEQYYDSRNEEHHQDTYRQIHIDIPRTNPLIPLFQQPLVQEIFERILFIWAIRHPASGYVQGINDLVTPFFVVFLSEYVEEDVENFDVTNLSQDMLRSIEADSFWCMSKLLDGIQDNYTFAQPGIQKKVKALEELVSRIDEQVHNHFRRYEVEYLQFAFRWMNNLLMRELPLRCTIRLWDTYQSEPEGFSHFHLYVCAAFLIKWRKEILDEEDFQGLLMLLQNLPTIHWGNEEIGLLLAEAYRLKYMFADAPNHYRR
B2: Golgi resident protein GCP60 (Homo sapiens), Q9H3P7 (parent)
chain: MAAVLNAERLEVSVDGLTLSPDPEERPGAEGAPLLPPPLPPPSPPGSGRGPGASGEQPEPGEAAAGGAAEEARRLEQRWGFGLEELYGLALRFFKEKDGKAFHPTYEEKLKLVALHKQVLMGPYNPDTCPEVGFFDVLGNDRRREWAALGNMSKEDAMVEFVKLLNRCCHLFSTYVASHKIEKEEQEKKRKEEEERRRREEEERERLQKEEEKRRREEEERLRREEEERRRIEEERLRLEQQKQQIMAALNSQTAVQFQQYAAQQYPGNYEQQQILIRQLQEQHYQQYMQQLYQVQLAQQQAALQKQQEVVVAGSSLPTSSKVNATVPSNMMSVNGQAKTHTDSSEKELEPEAAEEALENGPKESLPVIAAPSMWTRPQIKDFKEKIQQDADSVITVGRGEVVTVRVPTHEEGSYLFWEFATDNYDIGFGVYFEWTDSPNTAVSVHVSESSDDDEEEEENIGCEEKAKKNANKPLLDEIVPVYRRDCHEEVYAGSHQYPGRGVYLLKFDNSYSLWRSKSVYYRVYYTR
partner: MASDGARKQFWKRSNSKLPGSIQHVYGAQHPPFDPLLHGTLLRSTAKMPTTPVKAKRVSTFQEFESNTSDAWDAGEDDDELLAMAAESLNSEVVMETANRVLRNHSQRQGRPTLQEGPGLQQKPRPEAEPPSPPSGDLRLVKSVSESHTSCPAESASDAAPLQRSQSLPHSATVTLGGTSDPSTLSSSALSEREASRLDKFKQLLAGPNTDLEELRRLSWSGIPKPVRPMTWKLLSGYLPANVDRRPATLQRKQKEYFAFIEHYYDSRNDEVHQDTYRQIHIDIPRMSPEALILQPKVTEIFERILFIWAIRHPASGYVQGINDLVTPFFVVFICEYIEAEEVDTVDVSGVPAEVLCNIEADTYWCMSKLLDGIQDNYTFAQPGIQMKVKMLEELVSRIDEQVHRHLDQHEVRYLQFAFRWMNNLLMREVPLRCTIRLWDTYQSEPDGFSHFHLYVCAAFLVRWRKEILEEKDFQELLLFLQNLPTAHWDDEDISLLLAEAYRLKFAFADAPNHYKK
B3: Golgi resident protein GCP60 (Homo sapiens), Q9H3P7 (parent)
chain: B2 chain

Variants of: B1
Settings: with gcp60_human ACBD3, Q9H3P7

Row | Variant | effect of a mutation on the interaction
1 | L94A;T96A | with no effect
2 | L88A;N89A;S90A | decreasing interaction strength
3 | E102A;N103A;H104A | with no effect

Variants of: B2
Settings: with tb22a_human TBC1D22A

Row | Variant | effect of a mutation on the interaction
4 | I246A;M247A | disrupting interaction strength
5 | I246A;M247A;Q253A;T254A | disrupting interaction strength
6 | E225A;E226A;E227A;E228A | with no effect
7 | Y270A;E271A;Q272A;Q273A | with no effect
8 | P267A;G268A;N269A | disrupting interaction strength
9 | R196A;R197A;R198A;R199A | with no effect
10 | L164A;L165A;N166A;R167A | with no effect
11 | E200A;E201A;E202A;E203A | with no effect
12 | E192A;E193A;E194A;E195A | with no effect
13 | R236A;L237A;R238A;L239A | with no effect
14 | C168A;C169A;H170A | with no effect
15 | R204A;E205A;R206A;L207A;Q208A | with no effect
16 | Q274A;I275A;L276A;I277A | disrupting interaction strength
17 | K213A;R214A;R215A;R216A | with no effect
18 | R221A;L222A;R223A;R224A | with no effect
19 | Q259A;Q260A;Y261A | decreasing interaction strength
20 | K188A;K189A;R190A;K191A | with no effect
21 | E184A;E185A;Q186A;E187A | with no effect
22 | K209A;E210A;E211A;E212A | with no effect
23 | E240A;Q241A;Q242A | with no effect

Variants of: B2
Settings: with tb22a_human TBC1D22A
Remark: another data set of the same source

Row | Variant | effect of a mutation on the interaction
24 | S344A;S345A | with no effect
25 | G494A;S495A;H496A | with no effect
26 | E282A;Q283A;H284A;Y285A | disrupting interaction strength
27 | F433A;E434A;W435A | with no effect
28 | V256A;Q257A;F258A | disrupting interaction strength
29 | S511A;Y512A;S513A | with no effect
30 | Q264A;Q265A;Y266A | with no effect
31 | S414A;Y415A;L416A | with no effect
32 | F417A;W418A;E419A;F420A | with no effect

Variants of: B3
Settings: with polg_aiva8 polg

Row | Variant | effect of a mutation on the interaction
33 | S414A;Y415A;L416A | decreasing interaction strength
34 | Y512A | decreasing interaction strength
35 | F417A;W418A;E419A;F420A | disrupting interaction strength
36 | S511A | with no effect
37 | F433A | disrupting interaction strength
38 | V256A;Q257A;F258A | with no effect
39 | S513A | with no effect
40 | E282A;Q283A;H284A;Y285A | with no effect
41 | H496A | with no effect
42 | Q264A;Q265A;Y266A | with no effect
43 | E434A | with no effect
44 | F433A;E434A;W435A | disrupting interaction strength
45 | W435A | with no effect
46 | S511A;Y512A;S513A | disrupting interaction strength
47 | G494A;S495A;H496A | disrupting interaction strength
48 | S344A;S345A | with no effect

Variants of: B3
Settings: with polg_hkv1 polg

Row | Variant | effect of a mutation on the interaction
49 | S414A;Y415A;L416A | disrupting interaction strength
50 | F417A;W418A;E419A;F420A | disrupting interaction strength
51 | V256A;Q257A;F258A | with no effect
52 | E282A;Q283A;H284A;Y285A | with no effect
53 | Q264A;Q265A;Y266A | with no effect
54 | K507A;F508A;D509A;N510A | disrupting interaction strength
55 | F433A;E434A;W435A | disrupting interaction strength
56 | S511A;Y512A;S513A | disrupting interaction strength
57 | G494A;S495A;H496A | disrupting interaction strength
58 | S344A;S345A | with no effect
